The target of test [1] is T1, TNF alpha (UniProt P01375 77-233, limits assumed).
T1 construct: also called tumour necrosis factor; TNFSF2
The experiment in a line: SPR; off rate of the trimer against monomeric TN3-2-B. As for the experimental part: (§1) Surface plasmon resonance (SPR) binding analysis was performed on a BIAcore 3000 instrument (BiaCore, Sweden). TNF alpha capture antibody (AHC3712, Biosource International) to be immobilized was dissolved in 10 mM NaAcetate pH 5.0 and then immobilized on a CM5 BiaCore sensor chip using the Amine Coupling kit (BiaCore, Sweden).
(§2) Binding analysis was performed at a flow rate of 5 μl/min. Before loading of the protein sample, the chip was equilibrated in 10 mM Tris pH 8.0, 150 mM NaCl, 2 mM CaCl₂, 50 μM EDTA and 0.005% Surfactant P20. TNF alpha was dissolved in 10 mM Tris pH 8.0, 150 mM NaCl, 2 mM CaCl₂ at 10 μg/mL and 10 μL was injected. Aliquots (20 μl) of TNF alpha binders in monomeric or the trimeric format were injected using the KINJECT option. Five min of dissociation were allowed before the chip was regenerated with 10 mM Glycine pH 2.5. Binding of TNF alpha binders was tested at six different protein concentrations, ranging from 1 to 200 nM. Binding data were evaluated using the BIAevaluation program version 3.2 (BiaCore).
Background: In SPR one partner is held on a chip, and binding of the other changes the refractive index at the surface.

Test [2] concerns the target T1, TNF alpha. The experiment in a line: SPR; fold increase in affinity of the trimer over monomeric TN3-2-B. The protocol: as §1, §2
The target of test [3] is T1, TNF alpha. The experiment in a line: SPR (BIAcore 3000), TNF alpha captured by immobilised antibody AHC3712, binder injected. The protocol:
as §1, §2

The target of test [4] is T1, TNF alpha. Put plainly: SPR; fold increase in affinity of the trimer over monomeric TN3-2-C. The protocol:
as §1, §2

Test [5] has as its target T1, TNF alpha. The experiment in a line: SPR; fold increase in affinity of the trimer over monomeric TN3-2-D. The protocol:
as §1, §2

T1 sequence (P01375 77-233 limits assumed): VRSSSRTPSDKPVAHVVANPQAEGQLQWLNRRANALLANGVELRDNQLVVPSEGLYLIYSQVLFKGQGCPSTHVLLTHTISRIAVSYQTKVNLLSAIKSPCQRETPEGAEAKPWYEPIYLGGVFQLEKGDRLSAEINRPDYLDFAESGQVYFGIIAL

B1: TN-2-B (trimeric) (designed binder)
chain: EPPTQKPKKIVNAKKDVVNTKMFEELKSRLDTLAQEVALLKEQQALQTVCLKGTKVHMKCFLAFTQTKTFHEASEDCISRGGTLSTPQTGSENDALYEYLRQSVGNEAEIWLGLNKVRSRYFWMDMTGTRIAYKNWETEITAQPDPTNNENCAVLSGAANGKWFGKRCRDQLPYICQFGIV
notes: also called trimeric version of TN3-2-B
By Kd is commonly meant the constant that tells how readily two partners part at equilibrium. A higher Kd goes with a looser complex. As a reminder, the koff is a measure of how fast the partners let go of each other. What is called kon is a measure of how fast the partners come together. Read a high kon as fast association. As to B1, the “fold improvement of off value” in the test with TNF alpha [1] was greater than 1000 fold. The Fold increase in the test with TNF alpha [2] was found to be 304 fold. In the test with TNF alpha [3], this molecule registered a Kd of roughly 0.24 nM, a koff of 0.000736 s⁻¹ and an on-rate constant (kon) of 3.02e+06 M⁻¹ s⁻¹.

B2: TN-2-C (trimeric) (designed binder)
chain: EPPTQKPKKIVNAKKDVVNTKMFEELKSRLDTLAQEVALLKEQQALQTVCLKGTKVHMKCFLAFTQTKTFHEASEDCISRGGTLSTPQTGSENDALYEYLRQSVGNEAEIWLGLNKVRSRYFWVDMTGTRIAYKNWETEITAQPDPTNRENCAVLSGAANGKWFDKRCRDQLPYICQFGIV
notes: also called trimeric version of TN3-2-C
As for B2, the Fold increase with TNF alpha [4] stood at 37 fold. In the test with TNF alpha [3], this molecule gave a Kd of 4 nM, an off-rate (koff) of 0.00353 s⁻¹ and a kon of 884000 M⁻¹ s⁻¹.

B3: TN-2-D (trimeric) (designed binder)
chain: EPPTQKPKKIVNAKKDVVNTKMFEELKSRLDTLAQEVALLKEQQALQTVCLKGTKVHMKCFLAFTQTKTFHEASEDCISRGGTLSTPQTGSENDALYEYLRQSVGNEAEIWLGLNKVRSRYFWIDMTGTRIAYKNWETEITAQPDPNNRENCAVLSGAANGKWFGKRCRDQLPYICQFGIV
notes: also called trimeric version of TN3-2-D
Take B3: in the test with TNF alpha [5], the Fold increase was 12 fold. In the test with TNF alpha [3], this molecule returned a Kd of 4.1 nM, a dissociation rate constant (koff) of 0.00207 s⁻¹ and an on-rate constant (kon) of 506000 M⁻¹ s⁻¹.

B4: TN3-2-B (monomeric) (designed binder)
chain: ALQTVCLKGTKVHMKCFLAFTQTKTFHEASEDCISRGGTLSTPQTGSENDALYEYLRQSVGNEAEIWLGLNKVRSRYFWMDMTGTRIAYKNWETEITAQPDPTNNENCAVLSGAANGKWFGKRCRDQLPYICQFGIV
notes: Purified monomer from the E. coli periplasm (pBAD) for SPR
On to B4, for which, in the test with TNF alpha [3], the Kd turned out to be 73 nM, the koff stood at 0.923 s⁻¹ and the on-rate (kon) was 1.4e+07 M⁻¹ s⁻¹.

B5: TN3-2-C (monomeric) (designed binder)
chain: ALQTVCLKGTKVHMKCFLAFTQTKTFHEASEDCISRGGTLSTPQTGSENDALYEYLRQSVGNEAEIWLGLNKVRSRYFWVDMTGTRIAYKNWETEITAQPDPTNRENCAVLSGAANGKWFDKRCRDQLPYICQFGIV
notes: as for B4
In the test with TNF alpha [3], B5 displayed a Kd of 150 nM, a koff of 0.022 s⁻¹ and a kon of 134000 M⁻¹ s⁻¹.

B6: TN3-2-D (monomeric) (designed binder)
chain: ALQTVCLKGTKVHMKCFLAFTQTKTFHEASEDCISRGGTLSTPQTGSENDALYEYLRQSVGNEAEIWLGLNKVRSRYFWIDMTGTRIAYKNWETEITAQPDPNNRENCAVLSGAANGKWFGKRCRDQLPYICQFGIV
notes: as for B4
In the test with TNF alpha [3], B6 had a Kd of 50 nM, a koff of 0.0185 s⁻¹ and a kon of 364000 M⁻¹ s⁻¹.

These data come from patent publication US20070010658A1 (published 2007).
